According to patent US20170159025A1:

Legend:
[1] = target: human epidermal growth factor receptor (EGFR) (human) (UniProt P00533); test: cell-based or functional assay
[2] = target: EGFRvIII (UniProt P00533); test: cell-based or functional assay

Substance	Cytotoxicity % (LDH release), BxPC-3 cells, effector to target 1:1 [1] [%]	Cytotoxicity % (LDH release), BxPC-3 cells, effector to target 1:3 [1] [%]	Cytotoxicity % (LDH release), BxPC-3 cells, effector to target 3:1 [1] [%]	Cytotoxicity % (LDH release), CFPAC-1 cells, effector to target 3:1 [1] [%]	Cytotoxicity % (LDH release), PANC-1 cells, effector to target 1:1 [1] [%]	Cytotoxicity % (LDH release), PANC-1 cells, effector to target 3:1 [1] [%]	Cytotoxicity % (LDH release), U87-EGFR cells, effector to target 1:1 [1] [%]	Cytotoxicity % (LDH release), U87-EGFR cells, effector to target 1:3 [1] [%]	Cytotoxicity % (LDH release), U87-EGFR cells, effector to target 3:1 [1] [%]	Cytotoxicity % (LDH release), U87 cells, effector to target 1:1 [1] [%]	Cytotoxicity % (LDH release), U87 cells, effector to target 1:3 [1] [%]	Cytotoxicity % (LDH release), U87 cells, effector to target 3:1 [1] [%]	Cytotoxicity % (LDH release), U87-EGFRvIII cells, effector to target 1:1 [2] [%]	Cytotoxicity % (LDH release), U87-EGFRvIII cells, effector to target 3:1 [2] [%]	Cytotoxicity against target cells % (LDH release), U87-EGFRvIII cells, effector to target 5:1, 20 h [2] [%]	Cytotoxicity % (LDH release), CFPAC-1 cells, effector to target 1:1 [1] [%]	Cytotoxicity % (LDH release), CFPAC-1 cells, effector to target 1:3 [1] [%]	Cytotoxicity % (LDH release), PANC-1 cells, effector to target 1:3 [1] [%]	cytotoxicity against tumor cells U87-EGFRvIII (LDH release) [2] [%]
chimeric antigen receptor 806-28BBZ, scFv(EGFR)-CD28-CD28-CD137-CD3 zeta (from UniProt P01732 138-182; P10747 153-220; Q07011 214-255; P20963 52-164)	49	24	70	40	28	65	49	29	98	-14	-25	-2	41	81	85				
chimeric antigen receptor 806-Z, scFv(EGFR)-CD8-CD3 zeta (from UniProt P01732 138-203; P20963 52-164)	24	14	44	43	34										56	35	12	18	55.5
